Measured values: US20200270343A1 (COMPUGEN, published 2020)

B1: AB-576 anti-human VSIG10 mouse monoclonal antibody (antibody, V domains shown)
VH: EVQLQQSGPELVKPGASVKMSCKASGYTFTDYYMKWVKQSHGKSLEWIGDINPNNGGTTYNQKFKGKATLTVDKSSNTAYMQFNSLTSEDSAVYFCARFRLRAMDYWGQGTSVTVSS
VL: DIVMTQSPSSLTVTAGEKVTMSCKSSQSLLNSGDRKNYLTWYQQRPGLPPKLLIYWASTRESGVPDRFTGSGSGTDFTLTISSVQSEDLAVYFCQNDYIYPLTFGAGTKLELK
notes: clonal supernatant was also tested in WB
B2: AB-577 anti-human VSIG10 mouse monoclonal antibody (antibody, V domains shown)
VH: QVQLQQSGPELVRPGASVKMSCKPSGYRFTDYAISWVKQRTGQGLEWVGEIYPGNGNTYFNEKFKDKATLTADRSSNTAYMQLSSLTSEDSAVYFCARGYANYLPWGQGTLVTVSA
VL: DIQMTQSSSSFSVSLGDRVTITCKASEDIYNRLAWYQQKPGNAPRLLISGATGLETGVPSRISGSGSGRDYTLSITSLQTEDVGTYYCQQYWSTPRTFGGGTKLEIK
notes: as for B1

Key:
[1] = target: T1, human VSIG10 flag protein over-expressed in HEK293 cells (stable pool) (human); experiment: FACS titration (8 concentrations) on HEK293 cells over-expressing human VSIG10 Flag; Kd from binding curve
T1 chain: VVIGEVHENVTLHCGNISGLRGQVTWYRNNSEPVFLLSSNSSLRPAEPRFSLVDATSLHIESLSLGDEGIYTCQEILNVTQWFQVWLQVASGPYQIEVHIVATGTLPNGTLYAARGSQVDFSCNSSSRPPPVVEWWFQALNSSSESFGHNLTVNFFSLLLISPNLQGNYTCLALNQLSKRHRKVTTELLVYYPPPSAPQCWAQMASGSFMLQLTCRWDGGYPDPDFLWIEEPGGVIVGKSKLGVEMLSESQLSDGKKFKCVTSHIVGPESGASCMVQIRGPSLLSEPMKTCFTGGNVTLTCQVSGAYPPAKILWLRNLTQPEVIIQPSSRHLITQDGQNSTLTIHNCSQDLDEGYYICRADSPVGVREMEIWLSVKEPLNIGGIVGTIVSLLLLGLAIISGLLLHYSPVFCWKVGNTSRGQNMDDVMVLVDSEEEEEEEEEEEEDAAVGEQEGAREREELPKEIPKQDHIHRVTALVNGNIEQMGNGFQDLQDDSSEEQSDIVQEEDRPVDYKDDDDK
Procedure: (§1) The mAb binding was evaluated on HEK293 cells over expressing human VSIG10 as well.
(§2) Detection was carried out using Goat Anti mouse-PE secondary Ab.

[2] = target: human VSIG10 protein endogenously expressed on human cell lines (DAN-G, AsPc1/ASPC-1, DU-145, ZR-75) (human) (UniProt Q8N0Z9); experiment: FACS on DAN-G cells after VSIG10 siRNA knock down; 10 ug/ml mAb vs mIgG1 kappa isotype
[3] = target: human VSIG10 protein endogenously expressed on human cell lines (DAN-G, AsPc1/ASPC-1, DU-145, ZR-75) (human) (UniProt Q8N0Z9); experiment: FACS titration (8 concentrations) on ASPC-1 human cell line endogenously expressing VSIG10, vs mIgG1 kappa isotype; Kd from binding curve
[4] = target: human VSIG10 protein endogenously expressed on human cell lines (DAN-G, AsPc1/ASPC-1, DU-145, ZR-75) (human) (UniProt Q8N0Z9); experiment: FACS on DAN-G cells transfected with scrambled (non-target) siRNA; 10 ug/ml mAb vs mIgG1 kappa isotype
[5] = target: T1, human VSIG10 flag protein …; experiment: FACS on HEK293 cells over-expressing human VSIG10 Flag vs HEK293 empty vector cells; goat anti mouse PE detection
Procedure: The performance of the purified mAbs against human VSIG10, in FACS application were tested using HEK293 cells over-expressing human VSIG10 Flag. HEK293 cells transfected with an empty vector were used as a negative control.
Detection was carried out using Goat anti mouse PE secondary Ab.

[6] = target: human VSIG10 protein endogenously expressed on human cell lines (DAN-G, AsPc1/ASPC-1, DU-145, ZR-75) (human) (UniProt Q8N0Z9); experiment: FACS on AsPc1 cells transfected with scrambled (non-target) siRNA; 10 ug/ml mAb vs mIgG1 kappa isotype
[7] = target: human VSIG10 protein endogenously expressed on human cell lines (DAN-G, AsPc1/ASPC-1, DU-145, ZR-75) (human) (UniProt Q8N0Z9); experiment: FACS on AsPc1 cells after VSIG10 siRNA knock down; 10 ug/ml mAb vs mIgG1 kappa isotype
[8] = target: T1, human VSIG10 flag protein …; experiment: FACS titration (4 concentrations) on HEK293 cells over-expressing human VSIG10 Flag; Kd from binding curve
Procedure: as §1, §2

[9] = target: human VSIG10 protein endogenously expressed on human cell lines (DAN-G, AsPc1/ASPC-1, DU-145, ZR-75) (human) (UniProt Q8N0Z9); experiment: FACS titration (4 concentrations) on DU-145 human cell line endogenously expressing VSIG10, vs mIgG1 kappa isotype; Kd from binding curve

Kd [1] [nM] | MFI ratio of anti VSIG10 versus isotype control [2] [fold] | Kd [3] [nM] | MFI ratio of anti VSIG10 versus isotype control [4] [fold] | fold change MFI ratio (VSIG10 Flag cells vs empty vector cells) [5] [fold] | MFI ratio of anti VSIG10 versus isotype control [6] [fold] | MFI ratio of anti VSIG10 versus isotype control [7] [fold] | Kd [8] [nM] | Kd [9] [nM] | Binder
4.14 | 2.8 | 5.85 | 9.5 | 219 | 9.5 | 4.4 |  |  | B1
 | 3.54 |  | 12 | 160 | 9.3 | 5.2 | 4.67 | 4.62 | B2
